These results are taken from patent US20160222105A1 (MacroGenics, published 2016).

As usually defined, the Kd is a measure of binding affinity in units of concentration. As usually defined, the koff is a measure of how fast the partners let go of each other. The kon is a measure of how fast the partners come together.

In experiment [1] the target is T1, soluble human gpA33 with 6His (human, UniProt Q99795 22-235).
T1 construct: range 1-235; Expressed in CHO-S cells; The stated range starts at residue 1 and so includes the signal peptide; also called hgpA33-His
T1 sequence: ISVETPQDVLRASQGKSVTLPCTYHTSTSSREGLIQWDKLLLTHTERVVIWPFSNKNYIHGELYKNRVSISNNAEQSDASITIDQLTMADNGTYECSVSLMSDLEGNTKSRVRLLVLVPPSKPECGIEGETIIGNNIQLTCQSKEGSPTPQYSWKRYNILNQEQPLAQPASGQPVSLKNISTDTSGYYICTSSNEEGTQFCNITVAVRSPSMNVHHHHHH
As to the kind of experiment: SPR (BIAcore 3000), captured gpA33-His, diabody as analyte, 1:1 Langmuir global fit. On the technique in general: In SPR one partner is held on a chip, and binding of the other changes the refractive index at the surface.

The target of experiment [2] is T2, soluble cynomolgus monkey gpA33 with 6His (cynomolgus monkey, UniProt G7NU40 17-329).
T2 construct: range 1-314; The range 1-314 is as printed; also called cynogpA33-His
T2 sequence: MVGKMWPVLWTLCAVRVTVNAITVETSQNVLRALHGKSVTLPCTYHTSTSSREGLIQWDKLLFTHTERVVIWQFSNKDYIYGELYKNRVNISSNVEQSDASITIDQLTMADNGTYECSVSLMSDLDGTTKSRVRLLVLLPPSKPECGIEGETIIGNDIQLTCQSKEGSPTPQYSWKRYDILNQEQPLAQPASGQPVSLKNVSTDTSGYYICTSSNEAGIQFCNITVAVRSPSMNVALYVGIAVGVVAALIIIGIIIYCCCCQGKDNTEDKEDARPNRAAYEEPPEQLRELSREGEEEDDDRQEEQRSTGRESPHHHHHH
The description is as above.

Experiment [3] has as its target T3, soluble human CD3ε/CD3δ heterodimer (human).
T3 construct: Co-expressed in CHO-S cells; also called hCD3ε/δ
T3 chain 1: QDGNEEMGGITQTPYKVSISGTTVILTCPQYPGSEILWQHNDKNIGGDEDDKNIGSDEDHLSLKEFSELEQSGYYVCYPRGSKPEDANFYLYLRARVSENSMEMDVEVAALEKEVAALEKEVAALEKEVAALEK
T3 chain 2: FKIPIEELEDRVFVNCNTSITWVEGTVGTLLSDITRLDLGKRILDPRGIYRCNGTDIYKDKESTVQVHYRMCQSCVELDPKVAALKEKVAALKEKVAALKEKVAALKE
As to the kind of experiment: SPR (BIAcore 3000), CD3 immobilized on CM5 chip, diabody as analyte, 1:1 Langmuir global fit. The protocol: (§1) gpA33×CD3 bi-specific Fc diabody (DART-2 w/Fc Version 1) binding to soluble versions of human and cynomolgus monkey CD3 receptor was analyzed by SPR on a BIAcore 3000 biosensor (GE, Healthcare). Receptors were immobilized on the CM5 sensor chip according to the procedure recommended by the manufacturer. Briefly, the carboxyl groups on the sensor chip surface were activated with an injection of a solution containing 0.2M N-ethyl-N-(3dietylamino-propyl) carbodiimide and 0.05M N-hydroxy-succinimide. Soluble CD3 receptor (1 μg/ml) was then injected over the activated CM5 surface in 10 mM sodium-acetate, pH 5.0, at flow rate 5 μL/min, followed by 1 M ethanolamine for deactivation.
(§2) Binding experiments were performed in HBS-EP buffer, which contains 10 mM HEPES, pH 7.4, 150 mM NaCl, 3 mM EDTA and 0.005% P20 surfactant. Binding of DART-2 w/Fc Version 1 was analyzed (in duplicate) at concentrations of 0, 6.25, 12.5, 25, 50 and 100 nM, injected for 120 sec at a flow rate of 30 μL/min.
(§3) Regeneration of the immobilized receptor surfaces was performed by pulse injection of 10 mM glycine, pH 1.5. Reference curves were obtained by injection of each dilution of DART-2 w/Fc over the treated surface with no immobilized protein. Binding curves at zero concentration were subtracted as a blank. KD values were determined by a global fit of binding curves to the Langmuir 1:1 binding model (BIAevaluation™ software v4.1).

Experiment [4] deals with T4, soluble cynomolgus monkey CD3ε/CD3δ heterodimer (cynomolgus monkey).
T4 construct: Co-expressed in CHO-S cells; also called cynoCD3ε/δ
T4 chain 1: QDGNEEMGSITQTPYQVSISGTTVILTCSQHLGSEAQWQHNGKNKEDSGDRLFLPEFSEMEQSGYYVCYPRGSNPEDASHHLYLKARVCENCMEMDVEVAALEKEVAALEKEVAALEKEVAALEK
T4 chain 2: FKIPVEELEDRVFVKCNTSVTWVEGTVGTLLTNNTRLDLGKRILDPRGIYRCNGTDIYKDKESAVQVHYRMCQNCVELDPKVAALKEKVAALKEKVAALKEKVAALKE
The description is as above. The protocol:
as §1, §2, §3

The target of another experiment is T5, human gpA33 (human, UniProt Q99795 22-235, limits assumed).
T5 construct: There it is printed only as gpA33; also called A33 antigen
T5 sequence (looked up): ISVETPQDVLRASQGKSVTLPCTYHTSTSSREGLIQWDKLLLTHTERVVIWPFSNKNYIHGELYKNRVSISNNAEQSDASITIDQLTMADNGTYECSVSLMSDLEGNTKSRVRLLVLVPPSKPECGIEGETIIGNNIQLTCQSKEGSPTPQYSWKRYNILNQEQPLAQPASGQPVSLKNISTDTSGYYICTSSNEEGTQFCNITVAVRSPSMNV
Put plainly: kinetics of binding to gpA33; method not stated.

Experiment [5] concerns the target T6, gpA33 on human cancer cells (human, UniProt Q99795 22-319).
T6 sequence (looked up): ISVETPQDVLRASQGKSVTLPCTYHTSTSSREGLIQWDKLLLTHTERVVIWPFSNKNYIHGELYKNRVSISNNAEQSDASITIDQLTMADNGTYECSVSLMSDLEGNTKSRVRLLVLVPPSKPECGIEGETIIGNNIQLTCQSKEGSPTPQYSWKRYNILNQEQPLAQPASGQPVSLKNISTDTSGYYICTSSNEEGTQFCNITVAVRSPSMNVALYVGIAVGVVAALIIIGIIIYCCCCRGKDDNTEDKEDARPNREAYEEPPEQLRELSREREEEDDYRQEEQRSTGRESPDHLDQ
Put plainly: cell-based or functional assay.

The target in experiment [6] is CD3 of cynomolgus monkey T cells (cynomolgus monkey, UniProt Q95LI5 22-198; Q95LI8 22-171). As to the kind of experiment: cell-based or functional assay.
Chain of CD3 of cynomolgus monkey T cells (Q95LI5 22-198 limits assumed, chain 1 of 2): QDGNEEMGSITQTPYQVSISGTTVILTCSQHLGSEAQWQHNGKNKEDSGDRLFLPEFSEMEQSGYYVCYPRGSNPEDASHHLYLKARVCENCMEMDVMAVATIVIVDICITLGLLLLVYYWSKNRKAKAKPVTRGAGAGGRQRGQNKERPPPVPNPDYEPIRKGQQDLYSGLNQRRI
Chain of CD3 of cynomolgus monkey T cells (Q95LI8 22-171 limits assumed, chain 2 of 2): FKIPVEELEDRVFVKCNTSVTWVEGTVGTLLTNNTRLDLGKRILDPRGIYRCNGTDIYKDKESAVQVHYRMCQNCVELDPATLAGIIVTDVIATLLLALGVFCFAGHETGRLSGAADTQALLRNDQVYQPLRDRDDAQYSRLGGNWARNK

B1: gpA33 × CD3 bi-specific monovalent diabody having an IgG Fc Domain version 1 (DART-2 w/Fc Version 1) (bispecific antibody)
chain 1: DIQLTQSPSFLSASVGDRVTITCSARSSISFMYWYQQKPGKAPKLLIYDTSNLASGVPSRFSGSGSGTEFTLTISSLEAEDAATYYCQQWSSYPLTFGQGTKLEIKGGGSGGGGEVQLVESGGGLVQPGGSLRLSCAASGFTFSTYAMNWVRQAPGKGLEWVGRIRSKYNNYATYYADSVKDRFTISRDDSKNSLYLQMNSLKTEDTAVYYCVRHGNFGNSYVSWFAYWGQGTLVTVSSGGCGGGEVAALEKEVAALEKEVAALEKEVAALEKGGGDKTHTCPPCPAPEAAGGPSVFLFPPKPKDTLMISRTPEVTCVVVDVSHEDPEVKFNWYVDGVEVHNAKTKPREEQYNSTYRVVSVLTVLHQDWLNGKEYKCKVSNKALPAPIEKTISKAKGQPREPQVYTLPPSREEMTKNQVSLWCLVKGFYPSDIAVEWESNGQPENNYKTTPPVLDSDGSFFLYSKLTVDKSRWQQGNVFSCSVMHEALHNHYTQKSLSLSPGK
chain 2: QAVVTQEPSLTVSPGGTVTLTCRSSTGAVTTSNYANWVQQKPGQAPRGLIGGTNKRAPWTPARFSGSLLGGKAALTITGAQAEDEADYYCALWYSNLWVFGGGTKLTVLGGGGSGGGGQVQLVQSGAEVKKPGASVKVSCKASGYTFTGSWMNWVRQAPGQGLEWIGRIYPGDGETNYNGKFKDRVTITADKSTSTAYMELSSLRSEDTAVYYCARIYGNNVYFDVWGQGTTVTVSSGGCGGGKVAALKEKVAALKEKVAALKEKVAALKE
chain 3: not shown
notes: also called DART-2 with Fc
As to B1, the Kd was 2.2 nM in experiment [1], 12 nM in experiment [2], 23 nM in experiment [3] and 26 nM in experiment [4]. The koff in experiment [1] is 0.0009 s⁻¹; in experiment [2], 0.0028 s⁻¹; in experiment [3], 0.0035 s⁻¹; in experiment [4], 0.0034 s⁻¹. Further, the kon is 420000 M⁻¹ s⁻¹ in experiment [1], 230000 M⁻¹ s⁻¹ in experiment [2], 150000 M⁻¹ s⁻¹ in experiment [3] and 130000 M⁻¹ s⁻¹ in experiment [4].

B2: Humanized mAb 1 (antibody, V domains shown)
VH: QVQLVQSGAEVKKPGASVKVSCKASGYTFTGSWMNWVRQAPGQGLEWIGRIYPGDGETNYNGKFKDRVTITADKSTSTAYMELSSLRSEDTAVYYCARIYGNNVYFDVWGQGTTVTVSS
VL: DIQLTQSPSFLSASVGDRVTITCSARSSISFMYWYQQKPGKAPKLLIYDTSNLASGVPSRFSGSGSGTEFTLTISSLEAEDAATYYCQQWSSYPLTFGQGTKLEIK
notes: also called humanized anti-human gpA33 antibody
In the experiment with human gpA33, B2 came in with a Kd of 3.4 nM.

B3: gpA33 × CD3 bi-specific monovalent diabody (DART-2) (bispecific antibody)
chain 1: QAVVTQEPSLTVSPGGTVTLTCRSSTGAVTTSNYANWVQQKPGQAPRGLIGGTNKRAPWTPARFSGSLLGGKAALTITGAQAEDEADYYCALWYSNLWVFGGGTKLTVLGGGGSGGGGQVQLVQSGAEVKKPGASVKVSCKASGYTFTGSWMNWVRQAPGQGLEWIGRIYPGDGETNYNGKFKDRVTITADKSTSTAYMELSSLRSEDTAVYYCARIYGNNVYFDVWGQGTTVTVSSGGCGGGEVAALEKEVAALEKEVAALEKEVAALEK
chain 2: DIQLTQSPSFLSASVGDRVTITCSARSSISFMYWYQQKPGKAPKLLIYDTSNLASGVPSRFSGSGSGTEFTLTISSLEAEDAATYYCQQWSSYPLTFGQGTKLEIKGGGSGGGGEVQLVESGGGLVQPGGSLRLSCAASGFTFSTYAMNWVRQAPGKGLEWVGRIRSKYNNYATYYADSVKDRFTISRDDSKNSLYLQMNSLKTEDTAVYYCVRHGNFGNSYVSWFAYWGQGTLVTVSSGGCGGGKVAALKEKVAALKEKVAALKEKVAALKE
For B3, in experiment [5], the “EC50 - CTL Activity, Colo205 Target Cells, LDH Assay, Human PBMC” value was determined as 4.09 ng/mL and the “EC50 - CTL Activity, Colo205 Target Cells, Luciferase Assay, Human PBMC” value was determined as 2.73 ng/mL. In experiment [6], the “EC50 - CTL Activity, Colo205 Target Cells, LDH Assay, Cyno PBMC” value was found to be 3.81 ng/mL and the “EC50 - CTL Activity, Colo205 Target Cells, Luciferase Assay, Cyno PBMC” value came out at 1.55 ng/mL.

B4: gpA33 × CD3 bi-specific monovalent diabody having an Albumin-Binding Domain (DART-2 w/ABD) (bispecific antibody)
chain 1: QAVVTQEPSLTVSPGGTVTLTCRSSTGAVTTSNYANWVQQKPGQAPRGLIGGTNKRAPWTPARFSGSLLGGKAALTITGAQAEDEADYYCALWYSNLWVFGGGTKLTVLGGGGSGGGGQVQLVQSGAEVKKPGASVKVSCKASGYTFTGSWMNWVRQAPGQGLEWIGRIYPGDGETNYNGKFKDRVTITADKSTSTAYMELSSLRSEDTAVYYCARIYGNNVYFDVWGQGTTVTVSSGGCGGGEVAALEKEVAALEKEVAALEKEVAALEKGGGSLAQAKEAAIRELDKYGVSDYYKNLIDNAKSAEGVKALIDEILAALP
chain 2: DIQLTQSPSFLSASVGDRVTITCSARSSISFMYWYQQKPGKAPKLLIYDTSNLASGVPSRFSGSGSGTEFTLTISSLEAEDAATYYCQQWSSYPLTFGQGTKLEIKGGGSGGGGEVQLVESGGGLVQPGGSLRLSCAASGFTFSTYAMNWVRQAPGKGLEWVGRIRSKYNNYATYYADSVKDRFTISRDDSKNSLYLQMNSLKTEDTAVYYCVRHGNFGNSYVSWFAYWGQGTLVTVSSGGCGGGKVAALKEKVAALKEKVAALKEKVAALKE
With B4, in experiment [5], the “EC50 - CTL Activity, Colo205 Target Cells, LDH Assay, Human PBMC” value was found to be 5.52 ng/mL and the “EC50 - CTL Activity, Colo205 Target Cells, Luciferase Assay, Human PBMC” value amounted to 3.07 ng/mL. Also, in experiment [6], the “EC50 - CTL Activity, Colo205 Target Cells, LDH Assay, Cyno PBMC” value was found to be 4.63 ng/mL and the “EC50 - CTL Activity, Colo205 Target Cells, Luciferase Assay, Cyno PBMC” value was found to be 1.63 ng/mL.

B5: Murine mAb 1 (antibody, V domains shown)
VH: QVQLQQSGPELVKPGASVKISCKASGYTFSGSWMNWVKQRPGQGLEWIGRIYPGDGETNYNGKFKDKATLTADKSSTTAYMELSSLTSVDSAVYFCARIYGNNVYFDVWGAGTTVTVSS
VL: QIVLTQSPAIMSASPGERVTMTCSARSSISFMYWYQQKPGSSPRLLIYDTSNLASGVPVRFSGSGSGTSYSLTISRMEAEDAATYYCQQWSSYPLTFGSGTKLELK
notes: also called original murine anti-human gpA33 monoclonal antibody
The molecule B5 displayed a Kd with human gpA33 of 2.3 nM.

B6: Chimeric mAb 1 (antibody, V domains shown)
VH: QVQLQQSGPELVKPGASVKISCKASGYTFSGSWMNWVKQRPGQGLEWIGRIYPGDGETNYNGKFKDKATLTADKSSTTAYMELSSLTSVDSAVYFCARIYGNNVYFDVWGAGTTVTVSS
VL: QIVLTQSPAIMSASPGERVTMTCSARSSISFMYWYQQKPGSSPRLLIYDTSNLASGVPVRFSGSGSGTSYSLTISRMEAEDAATYYCQQWSSYPLTFGSGTKLELK
notes: also called chimericized anti-human gpA33 antibody
B6 had an equilibrium dissociation constant (Kd) with human gpA33 of 2.4 nM.
